Laboratory results: the supplement of paper PMC6757056
± gives the standard deviation of the averaged measurements.

B1: library; a variant is named by its letters at N, in order (parent)
chain: GCUGUCACCGGUGCUUGGUACGUUAUAUUCAGCCGGUCUGAUGAGUCUNNNNNNAGACGAAACAGC

Assays:
(6R,S)-folinic acid [1] = variants of: B1; test: FACS-Seq fitted mean relative fluorescence mCherry/BFP without ligand (log10 relative fluorescence); HEK293T overexpressing SLC46A1; higher = higher reporter protein expression; conditions: without (6R,S)-folinic acid; ligand present: no
How it was run: (§1)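 Enriched HEK293T cells carrying, by lentivirus, an mCherry reporter with the ribozyme switch and an EF1α-BFP marker spent 48 h with or without ligand and were sorted into 6 bins by mCherry/BFP. MiSeq sequencing of PCR-amplified bin genomic DNA gave bin counts. Fluorescence was calculated as the fitted normal mean of those counts. Counts were binned on log10(mCherry/BFP), and means were scaled to five spiked-in control ribozymes.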

(6R,S)-folinic acid [2] = variants of: B1; test: normalized RNA/DNA level without ligand (relative to sTRSVctl = 100) (log10 (% of sTRSVctl)); HEK293T overexpressing SLC46A1; higher = less ribozyme self-cleavage, higher mRNA level; conditions: without (6R,S)-folinic acid; ligand present: no
Experimental: (§2)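 Hammerhead (sTRSV) ribozyme switch libraries with a ligand aptamer grafted on stem I and a randomized N4-6 loop II, cloned into the 3' UTR of mCherry and transiently transfected into HEK293T cells; RNA-Seq 72 h post transfection with ligand added 1 h before transfection; RNA read count / plasmid DNA read count normalized to the non-cleaving sTRSVctl (x100), log10; sequences with >100 DNA reads. FACS-Seq: lentiviral library sorted into 6 bins after 48 h ligand, log-normal fit mean of mCherry/BFP scaled to controls. Printed sequences are partial switch sequences.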

(6R,S)-folinic acid [3] = variants of: B1; test: FACS-Seq fitted mean relative fluorescence mCherry/BFP with ligand (log10 relative fluorescence); HEK293T overexpressing SLC46A1; ligand concentration (+) FACS-Seq: 6 mM; higher = higher reporter protein expression; conditions: with (6R,S)-folinic acid; ligand present: yes
How it was run: as §1

(6R,S)-folinic acid [4] = variants of: B1; test: normalized RNA/DNA level with ligand (relative to sTRSVctl = 100) (log10 (% of sTRSVctl)); HEK293T overexpressing SLC46A1; ligand concentration (+) RNA-Seq: 6 mM; higher = less ribozyme self-cleavage, higher mRNA level; conditions: with (6R,S)-folinic acid; ligand present: yes
Experimental: as §2

Variant	FACS-Seq fitted mean (log10) ((6R,S)-folinic acid [1])	normalized RNA/DNA level without ligand (log10) ((6R,S)-folinic acid [2])	FACS-Seq fitted mean (log10) ((6R,S)-folinic acid [3])	normalized RNA/DNA level with ligand (log10) ((6R,S)-folinic acid [4])
GGACUA	0.287 ± 0.07	1.989 ± 0.0053	0.202 ± 0.044	1.97 ± 0.033
GGAAGA	0.0463 ± 0.13	1.993 ± 0.0044	0.239 ± 0.2	2.04 ± 0.031
ACUGGG	-0.0324 ± 0.033	1.841 ± 0.016	0.115 ± 0.1	2.0256 ± 0.0015
ACUUAG	0.58 ± 0.02	1.93 ± 0.0033	0.402 ± 0.071	1.978 ± 0.0025
ACUUAU	0.328 ± 0.084	1.991 ± 0.0041	0.329 ± 0.12	2.02 ± 0.031
ACUUAA	-0.0941 ± 0.16	1.974 ± 0.011	-0.044 ± 0.31	1.98 ± 0.033
ACUUAC	0.478 ± 0.045	2.009 ± 0.0089	0.5359 ± 0.00057	2.016 ± 0.014
GGACCG	0.438 ± 0.24	2.065 ± 0.0084	0.0255 ± 0.12	2.02 ± 0.031
ACGGAU	0.261 ± 0.068	1.936 ± 0.017	0.344 ± 0.042	2.01 ± 0.037
CGAACA	0.317 ± 0.096	1.981 ± 0.0064	0.446 ± 0.21	1.985 ± 0.0071
CGAACC	0.4 ± 0.15	2.059 ± 0.013	0.315 ± 0.15	2.02 ± 0.054
GCUGGU	0.447 ± 0.19	1.969 ± 0.0056	0.172 ± 0.21	1.99 ± 0.032
UCGGAG	0.429 ± 0.14	1.74 ± 0.019	0.837 ± 0.14	1.972 ± 0.0045
UCGGAA	0.527 ± 0.079	1.897 ± 0.0085	0.24 ± 0.14	1.99 ± 0.037
UCGGAU	0.33 ± 0.067	1.946 ± 0.019	0.517 ± 0.14	2.01 ± 0.024
UGAGGA	0.309 ± 0.047	1.839 ± 0.0062	0.598 ± 0.2	1.99 ± 0.031
UGAGGG	0.114 ± 0.058	1.657 ± 0.016	0.587 ± 0.016	1.95 ± 0.063
UCUAAA	0.394 ± 0.046	1.977 ± 0.0068	0.483 ± 0.022	2.018 ± 0.017
UGAAAG	0.184 ± 0.14	1.8081 ± 0.0016	0.436 ± 0.3	1.98 ± 0.031
UGAAAC	0.4232 ± 0.0017	1.946 ± 0.0065	0.578 ± 0.21	2 ± 0.042
UGAAAA	0.648 ± 0.13	1.98 ± 0.021	0.692 ± 0.22	1.992 ± 0.019
UGAAAU	0.196 ± 0.11	1.81 ± 0.027	0.516 ± 0.39	1.97 ± 0.027
UCUUGC	0.264 ± 0.036	2.018 ± 0.0075	0.449 ± 0.17	2.009 ± 0.016
UCUUGG	0.272 ± 0.099	1.904 ± 0.0099	0.131 ± 0.092	1.99 ± 0.022

Variant	FACS-Seq fitted mean (log10) ((6R,S)-folinic acid [1])	normalized RNA/DNA level without ligand (log10) ((6R,S)-folinic acid [2])	FACS-Seq fitted mean (log10) ((6R,S)-folinic acid [3])	normalized RNA/DNA level with ligand (log10) ((6R,S)-folinic acid [4])
GGAGCC	0.129 ± 0.011	2.0238 ± 0.0014	0.0129 ± 0.069	2.026 ± 0.02
UCGUUG	0.531 ± 0.029	1.881 ± 9.4e-05	0.5984 ± 0.0051	2.006 ± 0.0038
UCGGCC	0.562 ± 0.15	2.098 ± 0.0059	0.476 ± 0.036	2.043 ± 0.011
UCGGCU	0.288 ± 0.09	2.08 ± 0.024	0.415 ± 0.31	2.06 ± 0.053
GCGUGG	0.353 ± 0.032	1.968 ± 0.0025	0.444 ± 0.14	2.06 ± 0.046
ACGGUU	0.41 ± 0.022	1.99 ± 0.02	0.495 ± 0.047	2.01 ± 0.025
CGAGAA	0.311 ± 0.059	1.9567 ± 0.0017	0.426 ± 0.19	2.01 ± 0.039
CCUAGC	0.339 ± 0.022	2.075 ± 0.011	0.3 ± 0.46	2.053 ± 0.006
UCUGGG	0.501 ± 0.098	1.836 ± 0.012	0.524 ± 0.01	1.98 ± 0.027
UCUGGA	0.542 ± 0.018	1.99 ± 0.012	-0.0265 ± 0.23	2.05 ± 0.027
AGACCU	0.618 ± 0.15	2.02 ± 0.041	0.641 ± 0.01	2.05 ± 0.027
AGACCA	0.1 ± 0.31	2.05 ± 0.0039	0.262 ± 0.072	2.03 ± 0.028
ACGCUU	-0.382 ± 0.065	2.057 ± 0.018	-0.593 ± 0.26	2.047 ± 0.0046
UGACUG	0.14 ± 0.2	1.857 ± 0.0074	0.368 ± 0.08	1.99 ± 0.054
UCUGUU	0.459 ± 0.039	2.02 ± 0.03	0.679 ± 0.29	2.0647 ± 0.00045
GCUCGU	0.5943 ± 0.0012	2.0305 ± 0.0014	0.851 ± 0.091	2.02 ± 0.037
ACGUAA	0.69 ± 0.24	1.962 ± 0.0024	0.689 ± 0.3	2.006 ± 0.0065
ACGUAG	0.217 ± 0.032	1.912 ± 0.0036	0.598 ± 0.16	1.9927 ± 0.0014
GCUGAU	0.277 ± 0.044	2.036 ± 0.0025	0.23 ± 0.0065	2.014 ± 0.019
GCUGAA	-0.084 ± 0.057	2.021 ± 0.02	-0.25 ± 0.14	2.03 ± 0.028
UGAGUA	0.204 ± 0.015	1.911 ± 0.0073	0.422 ± 0.1	2 ± 0.043
UGAGUG	0.376 ± 0.083	1.652 ± 0.011	0.652 ± 0.081	1.93 ± 0.023
GCUACA	-0.313 ± 0.09	2.017 ± 0.018	-0.102 ± 0.14	2.03 ± 0.05
CGAGGG	0.504 ± 0.034	1.844 ± 0.0078	0.672 ± 0.22	1.968 ± 0.011

Variant	FACS-Seq fitted mean (log10) ((6R,S)-folinic acid [1])	normalized RNA/DNA level without ligand (log10) ((6R,S)-folinic acid [2])	FACS-Seq fitted mean (log10) ((6R,S)-folinic acid [3])	normalized RNA/DNA level with ligand (log10) ((6R,S)-folinic acid [4])
UGAAGG	0.12 ± 0.034	1.645 ± 0.012	0.569 ± 0.24	1.96 ± 0.042
UGAAGU	0.167 ± 0.1	1.907 ± 0.015	0.347 ± 0.17	2.01 ± 0.036
UGAAGA	0.139 ± 0.053	1.877 ± 0.0079	0.513 ± 0.11	1.98 ± 0.027
UCGUAC	0.373 ± 0.053	2.032 ± 0.019	0.343 ± 0.14	2.049 ± 0.0073
UCGUAA	-0.407 ± 0.028	1.937 ± 0.0094	-0.393 ± 0.27	2.007 ± 0.0097
ACGUUU	-0.149 ± 0.046	2.004 ± 0.015	-0.00103 ± 0.41	2.025 ± 0.015
ACGUUA	0.21 ± 0.027	1.991 ± 0.011	0.285 ± 0.14	2.02 ± 0.027
GCUUCA	0.3988 ± 0.0025	2.04 ± 0.033	0.641 ± 0.1	2.06 ± 0.031
ACUCAU	0.258 ± 0.022	2.013 ± 0.0051	0.187 ± 0.11	2.04 ± 0.029
ACUCAA	0.314 ± 0.088	1.973 ± 0.015	0.365 ± 0.012	2 ± 0.028
ACGUGA	0.282 ± 0.011	1.958 ± 0.012	0.173 ± 0.2	2.025 ± 0.015
GCUCUG	0.433 ± 0.072	1.99 ± 0.024	0.646 ± 0.038	2.03 ± 0.037
GCUCAA	0.44 ± 0.027	1.978 ± 0.0021	0.374 ± 0.1	1.985 ± 0.013
GCUCAC	0.502 ± 0.15	2.046 ± 0.0078	0.372 ± 0.23	2.032 ± 0.01
GCUCAU	-0.192 ± 0.045	2.02 ± 0.029	-0.09 ± 0.67	2.009 ± 0.013
ACUUUA	0.348 ± 0.12	1.978 ± 0.014	0.366 ± 0.15	2.01 ± 0.028
UCGUCG	0.35 ± 0.044	2.02 ± 0.04	0.455 ± 0.16	2.06 ± 0.011
UCUUUU	0.427 ± 0.12	2.005 ± 0.0088	0.26 ± 0.18	2.027 ± 0.013
CCUGAU	-0.195 ± 0.23	2.02 ± 0.024	-0.196 ± 0.058	2.05 ± 0.028
UGACGA	0.311 ± 0.052	1.9519 ± 0.0017	0.493 ± 0.015	2.04 ± 0.014
UGACGG	-0.24 ± 0.039	1.748 ± 0.0057	0.0392 ± 0.065	1.99 ± 0.044
UGACGC	0.28 ± 0.091	2.017 ± 0.0099	0.284 ± 0.026	2.033 ± 0.017
AGACGC	0.389 ± 0.13	2.018 ± 0.016	0.336 ± 0.11	2.01 ± 0.042
AGACGA	-0.49 ± 0.11	1.99 ± 0.015	-0.617 ± 0.18	2.02 ± 0.03
